Experimental data reported in patent US20240368301A1 (HANGZHOU JIUYUAN GENE ENGINEERING, published 2024).
Numbering of substitutions follows the chain as printed. In names and notes the source's numbering stands.

Legend:
[1] = target: T1, SIRPα V1-his (ACRO, Cat #SIA-H5225) (human, UniProt P78324 31-370); assay: competition ELISA; coated SIRPα-V1-his, biotin-CD47 as competitor
T1 construct: not shown: His tag
Procedure: 100 μL of 2.5 μg/mL of recombinant SIRPα-V1-his and SIRPα-V2-his were coated overnight at 4° C. in Maxisorp ELISA 96-well plates. […] […] VSWFSP (SEQ ID NO: 40)] and incubated in the microtiter plate for 1 h at 37° C. After washing, each well was added with Streptavdin-HRP (Thermo, Cat #434323), substrate TMB (Beyotime, Cat #P0209-100 mL), and read by an enzyme marker.

[2] = target: T2, SIRPα-V8 on stably transfected cells (Homo sapiens (Human), UniProt P78324 31-504); assay: FACS titration on CHOZN-SIRPα-V8 cells, goat anti-hIgG-AF488 (panel SIRPα-V8)
T2 construct: also called CHOZN-SIRPα-V8; 293T-SIRPα-V8
Procedure: (§1) 2×10⁵ per well of stable transfer construct cell lines 293T-SIRPα-V1 (SEQ ID NO: 2), CHOZN-SIRPα-V2 (SEQ ID NO: 38), and CHOZN-SIRPα-V8 (SEQ ID NO: 39) in logarithmic phase were dispended in 96-well U-shaped culture plates, […] After washing, the cells were incubated with 0.2 μg of goat anti-hIgG-AF488 for 30 min at 4° C., then resuspended in 50 μL of DPBS/1% FBS and analyzed by flow cytometry with FlowJo V10 and GraphPad Prism6 software.

[3] = target: T1, SIRPα V1-his (ACRO, Cat #SIA-H5225); assay: ELISA
[4] = target: T3, SIRPβ-his (Novoprotein, Cat #CS93) (UniProt O00241 30-371, limits assumed); assay: ELISA
[5] = target: T4, SIRPα-V1 on 293T-SIRPα-V1 cells (human, UniProt P78324 31-504); assay: FACS on cells carrying the target
T4 construct: Stably transfected cell line
Procedure: (§2) After washing, cells were stained with 0.2 μg goat anti-hIgG Fc-AF488 (Jackson ImmunoResearch, Cat #109-546-170) at 4° C. for 30 min. After washing again, cells were resuspended in 50 μL of DPBS/1% FBS and analyzed by FlowJo V10 and GraphPad Prism6 software.

[6] = target: T5, SIRPα-V2 on CHOZN-SIRPα-V2 cells (Homo sapiens (Human), UniProt P78324 31-504); assay: FACS on cells carrying the target
Procedure: as §2

[7] = target: T2, SIRPα-V8 on stably transfected cells; assay: FACS on cells carrying the target
Procedure: as §2

[8] = target: T4, SIRPα-V1 on 293T-SIRPα-V1 cells; assay: competition FACS; 293T-SIRPα-V1 cells, FITC-labelled CD47 as competitor
Procedure: (§3) After washing, cells were analyzed by FlowJo V10 and GraphPad Prism6 software.

[9] = target: T4, SIRPα-V1 on 293T-SIRPα-V1 cells; assay: FACS titration on 293T-SIRPα-V1 cells, goat anti-hIgG-AF488 (panel SIRPα-V1)
Procedure: as §1

[10] = target: T1, SIRPα V1-his (ACRO, Cat #SIA-H5225); assay: SPR (Biacore), antibody captured by anti-Fc on CM5, 50 nM SIRPα V1-his injected, 1:1 model
Procedure: (§4) Using the Biacore analysis system, activators were prepared by mixing 400 mM EDC and 100 mM NHS and activated with a CM5 sensor chip at a flow rate of 10 μL/min for 420 s. Anti-Fc antibody at 30 μg/mL dissolved in 10 mM NaAc (pH 4.5) was injected into the channel at a flow rate of 10 μL/min and then closed with 1 M ethanolamine-HCl at a flow rate of 10 μL/min for 420 s. […] All experimental data were fitted using a 1:1 binding model.

[11] = target: T1, SIRPα V1-his (ACRO, Cat #SIA-H5225); assay: BLI (Octet RED 96), His-tagged antigen on Ni-NTA sensor, antibody in solution
Procedure: (§5) SIRPα V1-his (ACRO, Cat #SIA-H5225), SIRPα V2-his (made by transient transfection of HEK293F cells according to SEQ ID NO:38 sequence), SIRPβ-his (Novoprotein, Cat #CS93), SIRPγ-his (Sino Biological, Cat #11828-H08H) or cynomolgus macaques SIRPα-his (ACRO, Cat #SIA-C52H7) at 5 μg/mL was loaded to a Ni-NTA biosensor for 600 s. […] The data were fitted to calculate the affinity.

[12] = target: T6, cynomolgus macaques SIRPα-his (ACRO, Cat #SIA-C52H7) (cynomolgus macaque, UniProt A0A2K5VYQ9 31-369); assay: as above
T6 construct: also called Monkey SIRPα; cynomolgus macaque SIRPα
T6 sequence: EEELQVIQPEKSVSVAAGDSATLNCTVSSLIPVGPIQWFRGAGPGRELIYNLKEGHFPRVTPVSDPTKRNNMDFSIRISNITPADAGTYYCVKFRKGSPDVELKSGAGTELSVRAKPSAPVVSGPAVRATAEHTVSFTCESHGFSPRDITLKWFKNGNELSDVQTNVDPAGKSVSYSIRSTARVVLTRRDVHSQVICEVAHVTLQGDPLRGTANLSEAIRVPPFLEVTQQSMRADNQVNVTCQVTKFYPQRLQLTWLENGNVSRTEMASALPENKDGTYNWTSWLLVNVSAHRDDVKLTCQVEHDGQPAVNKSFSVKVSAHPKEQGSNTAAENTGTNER
Procedure: as §5

[13] = target: SIRPγ-his (Sino Biological, Cat #11828-H08H) (UniProt Q9P1W8 29-360); assay: as above
Procedure: as §5

[14] = target: T3, SIRPβ-his (Novoprotein, Cat #CS93); assay: as above
Procedure: as §5

[15] = target: T5, SIRPα-V2 on CHOZN-SIRPα-V2 cells; assay: FACS titration on CHOZN-SIRPα-V2 cells, goat anti-hIgG Fc-AF488 (panel SIRPα-V2)
Procedure: as §2

[16] = target: T5, SIRPα-V2 on CHOZN-SIRPα-V2 cells; assay: competition FACS; CHOZN-SIRPα-V2 cells, FITC-labelled CD47 as competitor
Procedure: as §3

[17] = target: T1, SIRPα V1-his (ACRO, Cat #SIA-H5225); assay: SPR (Biacore), antibody captured by anti-Fc on CM5, 50 nM SIRPα V1-his injected
Procedure: as §4

Sequence of SIRPγ-his (Sino Biological, Cat #11828-H08H) (Q9P1W8 29-360 limits assumed): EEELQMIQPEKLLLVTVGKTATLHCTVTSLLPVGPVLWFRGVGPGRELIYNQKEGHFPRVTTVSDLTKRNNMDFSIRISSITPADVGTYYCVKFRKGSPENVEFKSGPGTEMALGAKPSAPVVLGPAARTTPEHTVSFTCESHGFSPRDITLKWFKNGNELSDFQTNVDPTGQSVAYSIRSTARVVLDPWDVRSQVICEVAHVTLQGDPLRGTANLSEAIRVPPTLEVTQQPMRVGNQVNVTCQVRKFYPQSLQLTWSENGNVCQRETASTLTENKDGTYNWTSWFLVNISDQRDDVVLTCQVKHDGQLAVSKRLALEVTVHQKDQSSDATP
T3 sequence (O00241 30-371 limits assumed): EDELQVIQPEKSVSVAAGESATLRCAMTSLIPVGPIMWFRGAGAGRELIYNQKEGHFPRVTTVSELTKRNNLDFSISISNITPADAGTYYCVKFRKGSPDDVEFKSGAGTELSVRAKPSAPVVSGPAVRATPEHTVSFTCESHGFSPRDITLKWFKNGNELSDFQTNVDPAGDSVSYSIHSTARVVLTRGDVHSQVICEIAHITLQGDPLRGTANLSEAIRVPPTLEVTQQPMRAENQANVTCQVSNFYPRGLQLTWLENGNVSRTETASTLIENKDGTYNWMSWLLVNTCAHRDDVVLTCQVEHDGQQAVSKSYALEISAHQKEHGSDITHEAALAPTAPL
T5 sequence (P78324 other isoform, or with tags, fused parts or gaps limits assumed): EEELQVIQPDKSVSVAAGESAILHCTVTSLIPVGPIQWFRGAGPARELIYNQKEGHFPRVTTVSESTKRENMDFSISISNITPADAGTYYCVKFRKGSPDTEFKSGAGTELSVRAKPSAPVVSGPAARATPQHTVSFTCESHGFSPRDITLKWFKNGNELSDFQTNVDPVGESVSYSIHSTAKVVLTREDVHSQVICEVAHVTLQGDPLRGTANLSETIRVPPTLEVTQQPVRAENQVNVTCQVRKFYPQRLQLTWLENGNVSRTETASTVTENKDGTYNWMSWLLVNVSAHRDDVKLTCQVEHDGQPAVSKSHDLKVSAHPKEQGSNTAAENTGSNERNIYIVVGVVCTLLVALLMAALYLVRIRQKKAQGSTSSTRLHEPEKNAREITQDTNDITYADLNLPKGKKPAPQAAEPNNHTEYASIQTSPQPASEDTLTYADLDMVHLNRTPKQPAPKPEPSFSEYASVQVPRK
T1 sequence (P78324 31-370 limits assumed): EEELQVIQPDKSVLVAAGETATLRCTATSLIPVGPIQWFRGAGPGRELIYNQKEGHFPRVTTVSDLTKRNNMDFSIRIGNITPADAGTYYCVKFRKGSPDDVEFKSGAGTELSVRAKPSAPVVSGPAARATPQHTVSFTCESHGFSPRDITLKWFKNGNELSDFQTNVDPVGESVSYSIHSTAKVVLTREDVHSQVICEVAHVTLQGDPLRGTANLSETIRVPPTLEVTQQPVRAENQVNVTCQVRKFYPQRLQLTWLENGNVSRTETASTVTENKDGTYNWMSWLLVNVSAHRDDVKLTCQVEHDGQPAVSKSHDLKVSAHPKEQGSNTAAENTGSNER
T4 sequence (P78324 31-504): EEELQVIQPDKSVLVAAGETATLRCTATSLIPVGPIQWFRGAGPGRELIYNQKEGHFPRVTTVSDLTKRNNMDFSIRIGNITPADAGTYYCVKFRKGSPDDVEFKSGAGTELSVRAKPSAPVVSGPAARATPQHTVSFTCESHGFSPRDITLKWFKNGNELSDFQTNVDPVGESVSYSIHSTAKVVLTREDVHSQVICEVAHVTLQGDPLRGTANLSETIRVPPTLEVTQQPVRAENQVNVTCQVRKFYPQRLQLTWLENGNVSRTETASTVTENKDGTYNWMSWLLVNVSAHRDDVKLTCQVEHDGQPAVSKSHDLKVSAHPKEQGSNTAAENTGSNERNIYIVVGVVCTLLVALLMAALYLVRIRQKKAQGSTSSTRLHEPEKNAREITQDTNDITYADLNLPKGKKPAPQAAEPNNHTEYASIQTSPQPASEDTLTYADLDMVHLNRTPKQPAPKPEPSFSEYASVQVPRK
T2 sequence (P78324 other isoform, or with tags, fused parts or gaps limits assumed): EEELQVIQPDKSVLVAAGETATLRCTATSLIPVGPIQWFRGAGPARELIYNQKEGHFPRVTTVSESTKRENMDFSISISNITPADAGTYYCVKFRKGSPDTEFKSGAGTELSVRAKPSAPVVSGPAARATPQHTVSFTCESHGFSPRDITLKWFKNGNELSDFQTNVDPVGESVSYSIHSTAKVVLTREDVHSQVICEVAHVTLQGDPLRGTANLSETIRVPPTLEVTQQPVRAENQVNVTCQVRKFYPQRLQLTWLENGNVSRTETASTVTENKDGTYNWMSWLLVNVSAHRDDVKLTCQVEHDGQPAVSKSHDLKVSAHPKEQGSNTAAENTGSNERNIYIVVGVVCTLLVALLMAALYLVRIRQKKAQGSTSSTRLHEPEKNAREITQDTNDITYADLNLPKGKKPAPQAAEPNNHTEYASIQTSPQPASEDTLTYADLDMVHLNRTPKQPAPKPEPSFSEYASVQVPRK

B1: AD4-12 (antibody, V domains shown)
VH: EVQLEESGPGLVAPSQSLSITCTVSGFSLTGYGVNWVRQPPGKGLEWLGIIWGDGSTDYNSALKSRLSISKDNSKSQVFLKMNSLQSDDTARYYCARAGKMDYWGQGTSVTVSS
VL: DIVLTQSPASLAVSLGQGATISCRASESVDSYGNSFMHWYQQKPGQPPKPLIYLASNLESGVPARFSGSGSRTDFTLTIDPVEADDAATYYCQQNNEYPWTFGGGTKLEIK
notes: Mouse variable domains joined to human kappa and human IgG1 constant regions (wild type = AD4-12-G1, L234A/L235A = AD4-12-G1lala); also called AD4-12-G1; AD4-12-G1lala
[1]
  IC50: 5260 pM
[2]
  EC50 (read off the curve): ~2000 pM
[3]
  EC50: 48.8 pM
[4]
  EC50: 271 pM
[5]
  EC50: 615 pM
[6]
  EC50: 245 pM
[7]
  EC50: 407 pM
[8]
  IC50: 1740 pM
[9]
  EC50 (read off the curve): ~5000 pM
[10]
  Kd: 1470 pM
  koff: 0.00113 s⁻¹
  kon: 770000 M⁻¹ s⁻¹
[11]
  Kd: 11.1 pM
  koff: 1.16e-05 s⁻¹
  kon: 1.05e+06 M⁻¹ s⁻¹
[12]
  Kd: 430 pM
  koff: 0.000498 s⁻¹
  kon: 1.16e+06 M⁻¹ s⁻¹
[13]
  Kd: 1030 pM
  koff: 0.000731 s⁻¹
  kon: 709000 M⁻¹ s⁻¹
[14]
  Kd: 35.3 pM
  koff: 3.21e-05 s⁻¹
  kon: 909000 M⁻¹ s⁻¹
[15]
  EC50 (read off the curve): ~4000 pM
[16]
  IC50: 6420 pM

B2: Z2 (antibody, IgG1, V domains shown)
VH: QVQLQESGPGLVKPSQTLSLTCTVSGFSLTGYGVNWIRQPPGKGLEWIGIIWGDGSTDYNSALKSRVTISVDTSKNQVFLKLSSVTAADTAVYYCARAGKMDYWGQGTTVTVSS
VL: B1 VL with L15P, G18R, S22T, P50L, D80N, D85N, T89N, L108V
notes: also called humanized variant Z2
[17]
  binding result: binds
